B1: Hammerhead Ribozyme (parent)
chain: ACCGGAUGUGCUUUCCGGUCUGAUGAGUCCGUGAGGACGAAACAG

Variants of: B1
Test: self-cleavage, relative activity (ratio to wild type); higher = more cleavage; co-transcriptional

Point of comparison: ACCGGAUGUGCUUUCCGGUCUUAUCAGUCCGUGAGGACGAAACAG [G22U G25C], self-cleavage 0.264. Against it:
- ACCGGAUGUGCUUUCCGGUCUGAUGAGUCCGUGAGGACGCAACAA [A40C G45A] — higher, 0.431
- ACCGGAUGUGCUUUCCGGUCUGAUGAGACCGUUAGGACGAAACAG [U28A G33U] — higher, 0.884
- ACGGGAUGUGCUUUCCGGUCUGUUGAGUCCGUGAGGACGAAACAG [C3G A23U] — lower, 0.242
- ACCGGGUGUGCGUUCCGGUCUGAUGAGUCCGUGAGGACGAAACAG [A6G U12G] — higher, 0.802
- ACCGGAUAUGCUUUCCGGUCUGAUGAGUCCGUGAGGACGAAACAA [G8A G45A] — higher, 0.704
- ACCGGAUGUGGUUUCCGGUCUGAUGAGUCCGUGAGGACCAAACAG [C11G G39C] — higher, 0.541
- ACCGGAUUUGCUUUCGGGUCUGAUGAGUCCGUGAGGACGAAACAG [G8U C16G] — higher, 0.731
- ACCGAAUGUGCUUUCCGGUCUGAUGAGUCCGUGAUGACGAAACAG [G5A G35U] — higher, 0.848
- ACCGGAUGUGCUUUCCGGUCUGAUGAGUCCGUGAUGACGAAGCAG [G35U A42G] — lower, 0.253
- AGCGGAUGUGUUUUCCGGUCUGAUGAGUCCGUGAGGACGAAACAG [C2G C11U] — higher, 0.32
- ACCGGAUGUGCUUUCCGGUCUGCUGAGUCCGUAAGGACGAAACAG [A23C G33A] — higher, 0.621
- ACCAGAUGCGCUUUCCGGUCUGAUGAGUCCGUGAGGACGAAACAG [G4A U9C] — higher, 0.47
- ACCGGAUGUGCUUUCCGGUCUGAUGAGUCCGUGAGCUCGAAACAG [G36C A37U] — higher, 0.29
- ACCGGAUGUGCUUUCCGGUCUUAUGAGUCCUUGAGGACGAAACAG [G22U G31U] — higher, 0.318
- ACCUGAUGUGCUUUCCGGUCGGAUGAGUCCGUGAGGACGAAACAG [G4U U21G] — higher, 0.325
- ACCGGAUGUGCUUUCCGGUCUGAUGAGCCCGUGAGGACGAGACAG [U28C A41G] — higher, 0.364
- ACCGGAUGUGCUUGCCGGUCUGAUGAGUCCGUGAGGACCAAACAG [U14G G39C] — higher, 0.41
- ACCGGAUGUGCUUUCCGGUCUGAUGAUUGCGUGAGGACGAAACAG [G27U C29G] — higher, 0.366
- ACCGGAUGUGCUCUCCGGUCUGAUGAGUCCGUGAGCACGAAACAG [U13C G36C] — higher, 0.336
- ACCGGAUGUGCUUUCCGGCCUGAUGAGUCCCUGAGGACGAAACAG [U19C G31C] — higher, 0.657
- ACCGGAUAUGCUUUCCGGUCUGAUAAGUCCGUGAGGACGAAACAG [G8A G25A] — higher, 0.405
- ACAGGAUGUGCUUUCCGGUCUGAUGAGUCCGUGAGGACGAAACAG [C3A] — higher, 0.772
- CCCGGAUUUGCUUUCCGGUCUGAUGAGUCCGUGAGGACGAAACAG [A1C G8U] — higher, 0.465
- ACGGGAUGUGCUUUCCGGUCUGAUGAGUCCGUGAGGACGAAAAAG [C3G C43A] — higher, 0.318
- ACCGGAUGUGCUUUCCGGUCUGAUGAGACCGGGAGGACGAAACAG [U28A U32G] — higher, 0.306
- ACCGGAUGUGCUGUCCGGUCUGAUGAGUCCGUGAGGACGUAACAG [U13G A40U] — higher, 0.303
- ACCGGAUGUGCUUUACGGUCUGAUGAGUCCGGGAGGACGAAACAG [C15A U32G] — higher, 0.769
- ACCGGAUGUGCUUUCCGGUCUGAUGAGUCCGUGAGGAGGGAACAG [C38G A40G] — higher, 0.357
- ACCGGAGGUGCUUUCGGGUCUGAUGAGUCCGUGAGGACGAAACAG [U7G C16G] — higher, 0.765
- ACCGGAUGUGCUUUCCGCUCUGAUGAUUCCGUGAGGACGAAACAG [G18C G27U] — higher, 0.298
- ACCGGAUGUGCUUUCCGGUCUGAUGAGUCCGUGAGGCCGACACAG [A37C A41C] — higher, 0.285
- ACCGGAUGUGCUUUCCGGUCUGAUGAGUCCGUGUAGACGAAACAG [A34U G35A] — higher, 0.638
- ACCGAAUGUGCUUUCCGGUCUGAUGCGUCCGUGAGGACGAAACAG [G5A A26C] — higher, 0.464
- ACCGUAUGUGCUUUCCGGUCUGAUGAGUCCGUGAGGACGAAAGAG [G5U C43G] — higher, 0.335
- ACCGGAUGUGCUUUUCGGUCUGAUGAGUCCUUGAGGACGAAACAG [C15U G31U] — higher, 0.881
- ACCGGAUGUGCUUUCCGGUCUGAUGAGUCCGUGAGGACGUGACAG [A40U A41G] — higher, 0.27
- ACCGGAUGUGCUUUCCGGUCUGAUGAGUCUGUGAGGAUGAAACAG [C30U C38U] — higher, 1.1
- ACCGGAUGUGCUUUCCGGUAUGAUGAGUCCGUGACGACGAAACAG [C20A G35C] — higher, 0.385
- ACCGGAUGUGCUUUCCGAUCUGAUGAGUCCGUCAGGACGAAACAG [G18A G33C] — higher, 0.635
- ACCGGAUGUGCUUUCCGGUCUGAUGAGUCCGCGAGGACGAGACAG [U32C A41G] — higher, 0.311
- ACCGGAUGUGCUUUCCGGUCUGAUGAGUCCGUGAGGACUAAUCAG [G39U A42U] — higher, 0.39
- ACCUGAUGUGCUCUCCGGUCUGAUGAGUCCGUGAGGACGAAACAG [G4U U13C] — higher, 0.634
- AUCGGAUGUCCUUUCCGGUCUGAUGAGUCCGUGAGGACGAAACAG [C2U G10C] — higher, 1.5
- ACCGGAUGUGCUUUACGGUCUGAUGAGUCCGUGAUGACGAAACAG [C15A G35U] — higher, 0.583
- ACCGGAUGUGUUUUCCGGUCUGAUGAGUCCGUGAGGACGAAAUAG [C11U C43U] — higher, 0.529
- ACCGGAUGUGCUUUCCGGUCUGAUGAGUCCGUGAGGACGGAGCAG [A40G A42G] — higher, 0.312
- ACCGGAUCUGCUUUCCGGUCUGAUGAGUCCGUGAGGACGAAACGG [G8C A44G] — higher, 1.47
- ACCGGAUGUGCUUUCCGGUUUGAUGAGUCCGUGAGGACGAAACGG [C20U A44G] — higher, 0.962
- ACCGGAUGUGCUUUCCUGUCUGAUGAGUCCGUGAGGGCGAAACAG [G17U A37G] — higher, 0.568
- GCCGGAUGUGCUUUCCGGUCUGAUGAGUCCGUGAGGACGAAACAC [A1G G45C] — higher, 1.01
- ACCGGAUGUGCUUUCCGGUCUGAUUAGUCCGUGAGGACGAACCAG [G25U A42C] — higher, 0.29
- ACCGGAUGUGCUUUCCGGCCUGAUGAGUCCGUGAGGACCAAACAG [U19C G39C] — lower, 0.251
- ACCGGAUGUGCUUUCCGGCCUGAUGAGUCCGUGAGGACAAAACAG [U19C G39A] — higher, 0.282
- ACCGGAUGUGCUUUCCCGUCUGACGAGUCCGUGAGGACGAAACAG [G17C U24C] — higher, 0.457
- ACCGGAUGUGCUUUCCGGUCUGAUGGGUCUGUGAGGACGAAACAG [A26G C30U] — higher, 0.404
- ACCGGAUCUGCUUUCCGGUCUGAUGAGUCCGUGAGGACGAGACAG [G8C A41G] — higher, 0.298

— the RNAGym collection of RNA variant scans (doi:10.7554/elife.80360)
